These results are taken from article doi:10.1101/2020.09.24.311712, “Surface condensation of a pioneer transcription factor on DNA”.

The target in data set [1] is Klf4-GFP (Homo sapiens, UniProt O43474 1-513). Nature of the data set: EMSA; poly-d(IC) 37.5 ng; Kd plotted in ED Fig. 2c but value not in material; EMSA: 25 mM Tris pH 7.4, 125 mM KCl, 6% glycerol, 1 mM DTT, 0.1 mg/ml BSA, 7.5 nM Cy5-dsDNA, 37.5 ng poly-d(IC), 20 min at 4 °C. The note with it: protein: recombinant; tags: C-terminal GFP; MBP removed with 3C protease; label: Cy5 at 3' end of strand 1 (so in the source); blunt. (In general: In EMSA bound probe runs differently from free probe, usually more slowly.)

For data set [2], the target named is MBP-Klf4-GFP (Homo sapiens, UniProt O43474 1-513). Nature of the data set: EMSA; poly-d(IC) 37.5 ng; Kd value not in material; EMSA: 25 mM Tris pH 7.4, 125 mM KCl, 6% glycerol, 1 mM DTT, 0.1 mg/ml BSA, 7.5 nM Cy5-dsDNA, 37.5 ng poly-d(IC), 20 min at 4 °C. The note with it: protein: recombinant, tags: N-terminal MBP (3C-cleavable), label: Cy5 at 3' end of strand 1 (so in the source), blunt.
Chain of MBP-Klf4-GFP (O43474 whole entry): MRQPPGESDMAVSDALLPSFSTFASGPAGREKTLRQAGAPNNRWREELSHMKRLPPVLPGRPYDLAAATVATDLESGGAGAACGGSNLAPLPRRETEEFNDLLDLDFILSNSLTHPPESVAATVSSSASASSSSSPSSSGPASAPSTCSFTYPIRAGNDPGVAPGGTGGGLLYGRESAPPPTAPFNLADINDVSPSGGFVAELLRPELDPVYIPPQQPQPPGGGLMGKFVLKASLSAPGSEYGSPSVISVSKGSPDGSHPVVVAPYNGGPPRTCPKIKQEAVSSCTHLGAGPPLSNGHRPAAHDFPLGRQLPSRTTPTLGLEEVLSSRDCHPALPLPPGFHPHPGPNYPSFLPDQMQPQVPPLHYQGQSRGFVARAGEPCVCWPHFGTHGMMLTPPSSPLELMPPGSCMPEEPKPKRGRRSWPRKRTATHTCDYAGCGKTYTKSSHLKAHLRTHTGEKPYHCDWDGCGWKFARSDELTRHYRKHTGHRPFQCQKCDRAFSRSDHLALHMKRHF

Chain of Klf4-GFP (O43474 whole entry): as above

B1: Klf4 specific dsDNA EMSA (dsDNA)
DNA 1: GGAGGGGTGTGGGGCTG
DNA 2: CAGCCCCACACCCCTCC
B1: the binding result in data set [1] and in data set [2] was “binds” in each case.
